The record followed here is article PMC12406269 (2025).

Assay [1] has as its target T1, human ISG15 (C78S) (human, UniProt P05161 1-157, C78S). In words: BLI.
In assay [2] the target is T1, human ISG15 (C78S). Put plainly: BLI. This is another data set of the same source. Background: Biolayer interferometry detects binding as a change in optical thickness at a sensor tip.

T1 sequence (P05161 1-157 C78S): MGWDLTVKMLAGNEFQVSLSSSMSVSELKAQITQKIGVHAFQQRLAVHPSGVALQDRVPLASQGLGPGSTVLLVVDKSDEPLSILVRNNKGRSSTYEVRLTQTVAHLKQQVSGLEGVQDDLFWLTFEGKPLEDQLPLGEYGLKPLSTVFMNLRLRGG

B1: C-terminally biotin-tagged VHH_(ISG15-B) (VHH)
VHH: QVQLVETGGGLVEPGGSLRLSCTVSGINFSSQFMAWFRQGPGKQREWVAIDAGEENVGYLDLVEGRFTISRDTARNTLYLQMNSLKPEDTAVYYCNIFPVLPDSRWGQGTQVTVSS
modifications: biotin at the C-terminus (sortase reaction with GGG-Biotin replaces the C-terminal HA tag)
What is called Kd is a measure of binding affinity in units of concentration. High values mean lower affinity, low ones higher affinity. As a reminder, the koff is the rate constant with which the complex falls apart. Turning to B1, the Kd in the assay with human ISG15 (C78S) [1] was determined as 2.88 nM. This molecule yielded a koff with human ISG15 (C78S) [2] of 0.00388 s⁻¹.

B2: C-terminally biotin-tagged VHH_(ISG15-A) (VHH)
VHH: QLQLVETGGGLVQAGGSLRLSCAASGRTFAGLSVKWFRQPPGAEREWVAHITSTGSSTHYADSVKGRFTISRDYDRNMVYLQMSSLKPEDTAVYYCHASTLWPEKHQDYWGQGIQVTVSS
modifications: biotin at the C-terminus (sortase reaction with GGG-Biotin replaces the C-terminal HA tag)
In the assay with human ISG15 (C78S) [1], B2 showed a Kd of 101 nM. Besides, in the assay with human ISG15 (C78S) [2], the koff amounted to 0.012 s⁻¹.
